Legend:
APOBEC2 [1] = target: T1, APOBEC2 (Mus musculus, UniProt Q9WV35 1-224); experiment: MST
T1 sequence: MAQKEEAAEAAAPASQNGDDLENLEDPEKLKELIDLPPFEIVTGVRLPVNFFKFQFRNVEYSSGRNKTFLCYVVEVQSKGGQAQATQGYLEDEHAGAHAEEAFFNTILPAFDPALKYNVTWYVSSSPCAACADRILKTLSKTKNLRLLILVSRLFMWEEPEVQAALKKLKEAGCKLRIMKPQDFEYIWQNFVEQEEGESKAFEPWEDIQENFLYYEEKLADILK

SP1 = SP1 (Homo sapiens, UniProt P08047 2-785); experiment: EMSA
APOBEC2 [2] = target: T1, APOBEC2; experiment: MST; remark: listed apart in the source

Sequence of SP1 (P08047 2-785): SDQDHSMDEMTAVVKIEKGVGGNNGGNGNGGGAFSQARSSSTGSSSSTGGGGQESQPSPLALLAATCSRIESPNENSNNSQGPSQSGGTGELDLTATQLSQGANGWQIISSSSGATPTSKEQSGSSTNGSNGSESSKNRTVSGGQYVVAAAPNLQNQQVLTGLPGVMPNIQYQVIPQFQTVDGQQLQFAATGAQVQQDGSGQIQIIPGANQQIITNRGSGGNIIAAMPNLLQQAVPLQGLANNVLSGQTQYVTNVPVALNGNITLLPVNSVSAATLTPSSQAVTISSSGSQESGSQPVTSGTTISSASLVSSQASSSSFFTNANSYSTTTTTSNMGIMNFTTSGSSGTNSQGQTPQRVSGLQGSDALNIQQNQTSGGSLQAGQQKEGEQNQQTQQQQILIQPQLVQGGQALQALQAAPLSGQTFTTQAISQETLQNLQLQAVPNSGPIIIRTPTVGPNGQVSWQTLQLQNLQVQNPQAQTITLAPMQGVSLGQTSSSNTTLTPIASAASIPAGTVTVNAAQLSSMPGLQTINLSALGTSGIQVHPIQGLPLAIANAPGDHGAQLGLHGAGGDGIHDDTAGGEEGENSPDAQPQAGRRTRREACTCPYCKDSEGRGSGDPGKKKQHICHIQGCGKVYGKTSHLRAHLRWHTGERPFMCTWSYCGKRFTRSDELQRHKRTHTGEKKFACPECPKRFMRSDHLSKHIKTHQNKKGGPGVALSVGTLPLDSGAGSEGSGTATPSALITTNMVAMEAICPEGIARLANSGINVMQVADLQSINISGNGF

Binder	Kd (APOBEC2 [1]) [nM]	binding result (SP1)	binding result (APOBEC2 [2])
SP/KLF motif dsDNA (dsDNA) DNA 1: GGCGGCGCGGCCCCGCCCCCTCCTCCGGC DNA 2: GCCGGAGGAGGGGGCGGGGCCGCGCCGCC	709 ± 186	binds	
A-tract motif dsDNA (dsDNA) DNA 1: TCTCAAGAAAAAAAAAAAAAGAC DNA 2: GTCTTTTTTTTTTTTTCTTGAGA			no binding

Reference: article doi:10.1101/2020.07.29.223594
